Data on 50 sequences can be found in the supplement of paper PMC9112550, “Optimization of the antimicrobial peptide Bac7 by deep mutational scanning” (BMC Biology, 2022).
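Further: peptides expressed intracellularly from a pBAD plasmid library in pooled LB shake-flask culture, induced with 0.3% L-arabinose, DNA abundance read by NGS, three biological replicates, DESeq2 with apeglm shrinkage.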

This data set concerns Escherichia coli TOP10. As to the kind of experiment: shrunken log2 fold change of peptide-encoding DNA abundance (4.5 h post-induction vs induction); higher = less antimicrobial activity (less host growth inhibition). The settings on record: time post-induction: 4.5 h; library: site-saturation at positions 5, 18, 19, 20.
Take RRIRERPPRLPRPRPRPGTTPRP: the “shrunken log2 fold change” value was -0.433.

As for RRIRYRPPRLPRPRPRPRECPRP, the “shrunken log2 fold change” value is -0.154.

Turning to RRIRARPPRLPRPRPRPFGSPRP, the “shrunken log2 fold change” value is -0.0315. For RRIRPRPPRLPRPRPRPQNAPRP, the “shrunken log2 fold change” value is -0.0677. In the case of RRIRTRPPRLPRPRPRPFPSPRP, the “shrunken log2 fold change” value came to 0.0745. With RRIRNRPPRLPRPRPRPWCLPRP, the “shrunken log2 fold change” value was -0.472. In the case of RRIRRRPPRLPRPRPRPYAIPRP, the “shrunken log2 fold change” value is -0.252.

As to RRIRSRPPRLPRPRPRPCGIPRP, the “shrunken log2 fold change” value was -0.0619.

In the case of RRIRNRPPRLPRPRPRPAGSPRP, the “shrunken log2 fold change” value stood at 0.086. The figure for RRIRCRPPRLPRPRPRPQRLPRP is 0.44. With RRIRKRPPRLPRPRPRPKMRPRP, the “shrunken log2 fold change” value was found to be 0.56. Take RRIRVRPPRLPRPRPRPWFGPRP: the “shrunken log2 fold change” value was determined as 0.0293. For the sequence RRIRNRPPRLPRPRPRPTTRPRP, the “shrunken log2 fold change” value is 0.0475. Consider RRIRIRPPRLPRPRPRPRNIPRP, for which the “shrunken log2 fold change” value is -0.00545. As for RRIRSRPPRLPRPRPRPPMCPRP, the “shrunken log2 fold change” value stood at 0.00128. For RRIRFRPPRLPRPRPRPDKYPRP, the “shrunken log2 fold change” value was -1.65. The figure for RRIRWRPPRLPRPRPRPWWYPRP is -0.203; for RRIRKRPPRLPRPRPRPFIQPRP it is 0.0388. Then RRIRPRPPRLPRPRPRPRVTPRP, with 0.326; and RRIRFRPPRLPRPRPRPPDFPRP, with -0.195. For the sequence RRIRIRPPRLPRPRPRPTWPPRP, the “shrunken log2 fold change” value came out at 0.368. Take RRIRRRPPRLPRPRPRPQSFPRP: the “shrunken log2 fold change” value is 0.0366. Turning to RRIRSRPPRLPRPRPRPINDPRP, the “shrunken log2 fold change” value was -0.113.

As for RRIRSRPPRLPRPRPRPGYNPRP, the “shrunken log2 fold change” value is -0.846. Regarding RRIRPRPPRLPRPRPRPCVVPRP, the “shrunken log2 fold change” value is 1.73.

Regarding RRIRVRPPRLPRPRPRPGDEPRP, the “shrunken log2 fold change” value turned out to be 0.122.

Regarding RRIRHRPPRLPRPRPRPHLEPRP, the “shrunken log2 fold change” value is -0.0228. For RRIRRRPPRLPRPRPRPLDRPRP, the “shrunken log2 fold change” value is -0.00997. As to RRIRSRPPRLPRPRPRPSNHPRP, the “shrunken log2 fold change” value is -0.503. With RRIRVRPPRLPRPRPRPKIEPRP, the “shrunken log2 fold change” value turned out to be 0.132. Turning to RRIRWRPPRLPRPRPRPSCTPRP, the “shrunken log2 fold change” value is -0.11. The figure for RRIRARPPRLPRPRPRPNHPPRP is -0.0147; for RRIRHRPPRLPRPRPRPVDHPRP it is -0.0462. The figure for RRIRRRPPRLPRPRPRPGVYPRP is -0.0241; for RRIRHRPPRLPRPRPRPHEEPRP it is -0.206; for RRIRNRPPRLPRPRPRPAVAPRP it is 0.339.

In the case of RRIRIRPPRLPRPRPRPVVDPRP, the “shrunken log2 fold change” value is -0.105. On to RRIRKRPPRLPRPRPRPLPYPRP, for which the “shrunken log2 fold change” value is -0.0627. The figure for RRIRGRPPRLPRPRPRPIRYPRP is -0.0811; for RRIRCRPPRLPRPRPRPCEPPRP it is -0.221; for RRIRVRPPRLPRPRPRPYQVPRP it is -0.293. For the sequence RRIRIRPPRLPRPRPRPHEDPRP, the “shrunken log2 fold change” value was -0.182.

RRIRNRPPRLPRPRPRPIRFPRP: the “shrunken log2 fold change” value is -0.0225. Regarding RRIRGRPPRLPRPRPRPWMKPRP, the “shrunken log2 fold change” value is 0.0546. For the sequence RRIRTRPPRLPRPRPRPPKYPRP, the “shrunken log2 fold change” value was -0.103. In the case of RRIRYRPPRLPRPRPRPPMFPRP, the “shrunken log2 fold change” value was -0.806. As to RRIRPRPPRLPRPRPRPVQWPRP, the “shrunken log2 fold change” value was 0.151. Consider RRIRLRPPRLPRPRPRPPIFPRP, for which the “shrunken log2 fold change” value was -0.0913. On to RRIRTRPPRLPRPRPRPNSEPRP, for which the “shrunken log2 fold change” value amounted to 0.0485. Regarding RRIRWRPPRLPRPRPRPKKAPRP, the “shrunken log2 fold change” value stood at 0.149.
